Source: patent US20120328625A1 (AstraZeneca / MedImmune, published 2012)

Experiments:
[1] = target: T1, full length human Shh expressed on the cell surface (human, UniProt Q15465 24-462); experiment: FMAT, hybridoma supernatant on 293T cells transiently expressing human Shh
T1 construct: whole, on cells; also called native human Shh; Shh-FL
Method: Cells were maintained at 1×10⁶ cells/ml overnight at 37° C., 5% CO₂. […] Supernatants were added to each well (10 μl/well) and incubated 1.5 hrs at RT. […] Plates were read on the FMAT 8100 HTS system from Applied Biosystems. Total signal (FL1×count) is defined as the number of positive cells in a well (count) multiplied by the average fluorescence intensity of the positive cells (FL1).

biotinylated human Shh = target: T2, biotinylated human Shh (human, UniProt Q15465 24-197, limits assumed, biotinylated); experiment: ELISA, hybridoma supernatant on neutravidin-captured biotin-Shh
T2 construct: also called biotin-Shh; immobilized biotinylated Shh
Method: After blocking with 1% milk in PBS, 40 μl of 500 ng/ml biotinylated Shh in 1×PBS, 1% milk (wt/vol) was added to each well and incubated for 1 hr at RT. Hybridoma supernatants (10 μl/well) were added to 40 μl of 1% milk, 0.05% Tween-20 in PBS per well and incubated 1 hr at RT. Following washing and incubation with secondary antibody (100 ng/ml goat-anti-human IgG Fc HRP), wells were developed with TMB substrate and subsequently quenched with 1 N HCl.

[2] = target: T1, full length human Shh expressed on the …; experiment: flow cytometry, transfected against parental 293T cells
Method: (§1) Finally, binding of antibody in exhaust hybridoma supernatants to native Shh was assessed using flow cytometry. […] Transfected or parental cells were seeded into the plates with V-bottom wells (50,000 cells/well). Exhaust supernatants (50 μl of a 1:10 dilution) were added to each well and incubated at 4° C. for 1 hr. […] It was added to a concentration of 2 μg/ml in a volume of 50 μl. Cells were washed and 50 μl of a 2 μg/ml solution of secondary antibody (Cy5-labeled goat-anti-human IgG or Cy5-labeled goat-anti-rabbit IgG) were added to each well. 7AAD was added to a concentration of 5 μg/ml and the mixture was incubated for 30 min at RT. The mean fluorescence for each sample was then determined using flow cytometry.

[3] = target: T1, full length human Shh expressed on the …; experiment: cell-based or functional assay
[4] = target: T3, Shh-N in conditioned medium (human, UniProt Q15465 24-197, N-terminal palmitoyl modification; lacks the C-terminal cholesterol moiety); experiment: cell-based or functional assay
[5] = target: T1, full length human Shh expressed on the …; experiment: flow cytometry, exhaust hybridoma supernatant 1:10, 293T cells transiently expressing human Shh
Method: as §1

[6] = target: T1, full length human Shh expressed on the …; experiment: cell-based or functional assay; remark: listed apart in the source
[7] = target: T3, Shh-N in conditioned medium; experiment: cell-based or functional assay; remark: listed apart in the source
[8] = target: T3, Shh-N in conditioned medium; experiment: cell-based or functional assay; remark: listed apart in the source

| Binder | FL1 X COUNT [1] | OD450 (biotinylated human Shh) | ratio [2] | % Inh of Gli1 reporter, Co-Culture N = 1 [3] | % Inh of Gli1 reporter, Co-Culture N = 2 [3] | % Inh of Gli1 reporter, CM N = 1 [4] | % Inh of Gli1 reporter, CM N = 3 [4] | X Geo Mean (Transients) [5] | % Inhibition of Gli1 reporter, Co-Culture N = 1, 20 µg/ml [6] | % Inhibition of Gli1 reporter, Co-Culture N = 2, 20 µg/ml [6] | % Inhibition of Gli1 reporter, Co-Culture N = 3, 20 µg/ml [6] | % Inhibition of Gli1 reporter, Conditioned Media N = 1, 20 µg/ml [7] | % Inhibition of Gli1 reporter, Conditioned Media N = 2, 20 µg/ml [7] | IC50, inhibition of osteoblast differentiation (alkaline phosphatase) of C3H10T1/2 cells [8] |
| --- | --- | --- | --- | --- | --- | --- | --- | --- | --- | --- | --- | --- | --- | --- |
| 1A12 (antibody, V domains shown, fully human XenoMouse hybridoma antibody; tested as hybridoma supernatant and as purified antibody; also called MAb 1A12) VH: QVYLVESGGGVVQPGRSLRLSCAASGFTFSSYGMHWVRQAPGKGLEWVAVIWYDGSNEYYADSVKGRFTISRDNSKNTLYLQMNSLRAEDTAVYYCARDLYYYGSGSPFDYWGQGTLVTVSS VL: EIVMTQSPATLSVSPGERATLSCRASQSVSSNLAWYQQKPGQAPRLLIFGVSIRATGIPARFSGSGSGTEFTLTISSLQSEDFAVYYCQQYNDWPRPGFGGGTKVEIK | 696000 | 4.09 OD450 | 78.1 | 40% | 32% | 25% | 43% | 290 | 58% | 59% | 22% | 18% | 57% | 4.6 nM |
| 1G12 (antibody, V domains shown, fully human XenoMouse hybridoma antibody; tested as hybridoma supernatant and as purified antibody; also called MAb 1G12) VH: QVQLVESGGGVVQPGRSLRLSCAASGFTFSTYGMHWVRQAPGKGLEWVAVIWYDGSNKYYADSVNGRFTISRDNSKNTLYLQMNSLRGEDTAVYYCARDLYYYGSGSPFDYWGQGTLVTVSS VL: EIVMTQSPATLSVSPGERVTLSCRASQSVSSNLAWYQQKPGQAPRLLIYGVSIRATGIPARFSGSGSGTEFTLTISSLQSEDFAVYYCQQYDNWPRPGFGGGTKVEIK | 327000 | 2.49 OD450 | 2.2 | 30% | 35% | 32% | 40% | 8.3 | 35% | 43% | 28% | 23% | 44% | 7.1 nM |
| 1H10 (antibody, V domains shown, fully human XenoMouse hybridoma antibody; tested as hybridoma supernatant and as purified antibody; also called MAb 1H10) VH: QVQLVESGGGVVQPGRSLRLSCAASGFTFSSYGMHWVRQAPGKGLEWVAVIWNDGSNEYYADSVKGRFTISRDNSKNTLYLQMNSLRAEDTAVYYCARDLYYYGSGSPFDDWGQGTLVTVSS VL: EIVMTQSPGTLSVSPGERATLSCRASQSVGSNLAWYQQKPGQAPRLLIFGVSIRATGVPARFSGSGSGTEFTLTISSLQSEDFAVYYCQQYNDWPRPGFGGGTKVEIK | 370000 | 3.46 OD450 | 40.9 | 37% | 23% | 43% | 28% | 150 | 47% | 68% | 4% | 48% | 24% | 4.4 nM |
| 1F4 (antibody, V domains shown, fully human XenoMouse hybridoma antibody; tested as hybridoma supernatant and as purified antibody; also called MAb 1F4) VH: not shown VL: EIVMTQSPATLSVSPGERATLSCRASQSISSNLAWYQQKPGQAPRLLIYGASTRATGIPARFSGSGSGTEFTLTISSLQSEDFAVYFCQQYHSWWTFGQGTKVEIQ | 110000 | 6 OD450 | 63.8 | 31% | 47% | 21% | 9% | 219 | 31% | 18% | 28% | 2% | 16% |  |
| 1H12 (antibody, V domains shown, fully human XenoMouse hybridoma antibody; tested as hybridoma supernatant and as purified antibody; also called MAb 1H12) VH: QVQLVQSGAEVKKPGASVKVSCKASGYTFTGYYMHWVRQAPGQGLEWVGWFNPNSGGTNCAQKFQGRVTMTRDTSISTAYMELSRLRSDDTAVYYCAREAVESYYYGLDVWGQGTTVTVSS VL: QSVVTQPPSASGTPGQRITISCSGSSSNIGSNYVYWYHQLPGSAPNLLIYRNNQRPSGVPDRFSGSKSGTSASLAISGLRSEDEADYFCAVWDDSLRGVVFGGGTKLTVL | 1.11e+06 | 3.73 OD450 | 9.1 | 48% | 19% | 38% | 40% | 34.4 | 8% | 15% | 13% | -5% | -5% |  |
| 1H8 (antibody, V domains shown, fully human XenoMouse hybridoma antibody; also called MAb 1H8) VH: QVQLQESGPGLVKPSETLSLTCTVSGGSISSYYWTWIRQPPGKGLEWIGYIYYSGSTNYNPSLKSRVTISVDTSKNQFSLKLSSVTAADTAVYYCARDRLLYGMDVWGQGTTVTVSS VL: not shown | 89600 | 4.04 OD450 | 44.1 | 38% | 42% | 52% | 42% | 165 | 32% | 25% | 36% | 34% | 48% | 5.7 nM |
| 1A5 (antibody, V domains shown, fully human XenoMouse hybridoma antibody; tested as hybridoma supernatant and as purified antibody; also called MAb 1A5) VH: EVQVVESGGDLIQPGGSLRLSCVASGFTVSSNYMNWVRQAPGKGLEWVSVIYSGGNTYYADSVKGRFTISRDNSKNTLYLQMNSLRAEDTAVYYCARDSSVVVGLGYFDLWGRGTLVTVSS VL: SYELTQPPSVSVSPGQTASITCSGDKLGANYASWYQQKPGQSPVLVIFQDTKRPSGIPERFSGSNSGNTATLTISGTQAMDEADYYCQAWDFSTVIFGGGTKLTVL | 304000 | 6 OD450 | 70.5 | 20% | 27% | 73% | 62% | 265 | 25% | 20% | 20% | 35% | 34% | 4.8 nM |
| 1C8 (antibody, V domains shown, fully human XenoMouse hybridoma antibody; tested as hybridoma supernatant and as purified antibody; also called MAb 1C8) VH: EVQLVESGGGLIQPGGSLRLSCAVSGFTVSSNCMNWVRQAPGKGLEWVSVIYSGGKTAYADSVKGRFTISRDNSKNTLCLQMNSLRAEDTAVYYCARDSSMVVGLGYFDLWGRGTLVTVSS VL: SYELTQPPSVSVSPGLTASITCSGDKLGYKYASWYQQKPGQSPVLVIYQDIKRPSGIPERFSGSNSGNTATLTISGTQAMDEADYYCQAWDSSTVVFGGGTKLTVL | 319000 |  | 33.3 | 32% | 24% | 47% | 43% | 118 | 26% | 10% | 23% | -1% | 8% |  |
